From paper PMC4346194

Key:
Assay in all cases: pull-down
[1] = molecular target: GST-tagged ΔIBB-importin α3 (human) (UniProt O00629)
[2] = molecular target: GST-tagged ΔIBB-importin α1 (mouse) (UniProt P52293)
[3] = molecular target: GST-tagged IBB3-importin α1 (human | mouse) (UniProt O00629)
[4] = molecular target: GST-tagged FL-importin α1 (mouse) (UniProt P52293)
[5] = molecular target: GST-tagged FL-importin α7 (human) (UniProt O60684)
[6] = molecular target: GST-tagged ΔIBB-importin α7 (human) (UniProt O60684)
Chain of GST-tagged ΔIBB-importin α7 (human) (O60684 59-536, stated change not applied): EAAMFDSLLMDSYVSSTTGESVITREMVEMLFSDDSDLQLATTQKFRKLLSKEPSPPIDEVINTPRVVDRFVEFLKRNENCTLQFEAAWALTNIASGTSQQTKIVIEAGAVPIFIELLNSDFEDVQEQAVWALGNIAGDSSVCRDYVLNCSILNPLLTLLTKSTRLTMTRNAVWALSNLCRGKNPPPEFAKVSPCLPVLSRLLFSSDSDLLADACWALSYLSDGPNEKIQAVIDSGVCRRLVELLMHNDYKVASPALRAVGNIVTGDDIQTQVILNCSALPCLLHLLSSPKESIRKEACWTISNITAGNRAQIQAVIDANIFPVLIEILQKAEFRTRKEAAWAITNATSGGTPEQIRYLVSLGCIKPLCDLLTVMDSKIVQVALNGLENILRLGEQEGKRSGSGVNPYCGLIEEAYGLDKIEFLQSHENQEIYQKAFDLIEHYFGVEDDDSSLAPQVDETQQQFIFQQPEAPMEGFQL

[7] = molecular target: GST-tagged FL-importin α3 (human) (UniProt O00629)
Chain of GST-tagged FL-importin α3 (human) (O00629 whole entry): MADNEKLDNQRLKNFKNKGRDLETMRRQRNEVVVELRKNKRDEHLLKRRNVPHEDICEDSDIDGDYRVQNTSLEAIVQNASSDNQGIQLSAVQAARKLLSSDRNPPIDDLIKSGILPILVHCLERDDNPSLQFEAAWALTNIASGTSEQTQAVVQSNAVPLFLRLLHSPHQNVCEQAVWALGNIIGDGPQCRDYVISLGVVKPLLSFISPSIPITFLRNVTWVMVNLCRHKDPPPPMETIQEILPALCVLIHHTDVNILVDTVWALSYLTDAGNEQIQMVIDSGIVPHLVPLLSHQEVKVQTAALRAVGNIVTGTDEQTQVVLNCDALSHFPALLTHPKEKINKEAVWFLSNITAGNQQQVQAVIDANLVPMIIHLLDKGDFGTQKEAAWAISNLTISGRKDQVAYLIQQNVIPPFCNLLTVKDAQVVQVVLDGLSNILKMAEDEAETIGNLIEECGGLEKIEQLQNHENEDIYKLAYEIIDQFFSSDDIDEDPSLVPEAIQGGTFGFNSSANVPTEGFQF

[8] = molecular target: GST-tagged IBB1-importin α3 (mouse | human) (UniProt P52293)

Chain of MBP-tagged PB2-biNLS (res. 738-759) (P31345 738-759 limits assumed): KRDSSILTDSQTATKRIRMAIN

Substance | percent of importin α bound to cargo [1] | percent of importin α bound to cargo [2] | percent of importin α bound to cargo [3] | percent of importin α bound to cargo [4] | percent of importin α bound to cargo [5] | percent of importin α bound to cargo [6] | percent of importin α bound to cargo [7] | percent of importin α bound to cargo [8]
MBP-tagged PB2-NLD (res. 678-759) (from UniProt P31345 678-759) (domain or fragment) | 100% | 100% | 70% | 32% | 62% | 100% | – | –
MBP-tagged PB2-biNLS (res. 738-759) (from UniProt P31345 738-759) (peptide) | 27% | 51% | – | 7% | 21% | 81% | 7% | –
MBP-tagged nucleoplasmin NLS (NP-NLS, res. 155-170) (from UniProt P05221 155-170) (peptide) | 45% | – | 57% | – | – | – | – | 12%
